# Values quoted from earlier work, collected in article PMC8329052.
# Target: SARS-CoV-2 spike RBD RBD (SARS-CoV-2) (UniProt P0DTC2)
substance,measurement,value
SBP1 (ACE2 alpha1 helix 23-mer peptide) 21-43 (from UniProt Q9BYF1),Kd,47 nM
